Reference: PMC10397247

Columns and labels:
Assay in all cases: two-hybrid library CCNG1;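 note: natural log of median RNA to DNA barcode read ratio; higher means stronger binding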
4H48-bN = target: T1, 4H48-bN
T1 chain: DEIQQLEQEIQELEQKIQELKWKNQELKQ

4H2937-bN = target: T2, 4H2937-bN
T2 chain: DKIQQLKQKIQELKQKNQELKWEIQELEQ

4H2944-bN = target: T3, 4H2944-bN
T3 chain: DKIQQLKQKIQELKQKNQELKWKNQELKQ

4H491-bN = target: T4, 4H491-bN
T4 chain: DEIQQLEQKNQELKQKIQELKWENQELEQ

4H2883-bN = target: T5, 4H2883-bN
T5 chain: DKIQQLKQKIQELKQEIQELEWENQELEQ

4H342-bN = target: T6, 4H342-bN
T6 chain: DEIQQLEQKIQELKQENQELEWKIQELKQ

P8mSN = target: T7, P8mSN
T7 chain: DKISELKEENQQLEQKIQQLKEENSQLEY

P9mSN = target: T8, P9mSN
T8 chain: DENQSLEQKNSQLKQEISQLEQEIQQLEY

P2mSN = target: T9, P2mSN
T9 chain: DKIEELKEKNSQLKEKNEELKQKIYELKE

P6mSN = target: T10, P6mSN
T10 chain: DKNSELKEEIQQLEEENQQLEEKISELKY

P12mSN = target: T11, P12mSN
T11 chain: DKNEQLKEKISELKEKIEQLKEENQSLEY

P1mSN = target: T12, P1mSN
T12 chain: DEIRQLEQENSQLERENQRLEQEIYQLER

P3mSN = target: T13, P3mSN
T13 chain: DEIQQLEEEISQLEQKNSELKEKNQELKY

P5mSN = target: T14, P5mSN
T14 chain: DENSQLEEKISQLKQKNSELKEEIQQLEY

P4mSN = target: T15, P4mSN
T15 chain: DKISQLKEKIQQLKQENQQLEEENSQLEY

P7mSN = target: T16, P7mSN
T16 chain: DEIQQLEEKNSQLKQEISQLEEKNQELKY

4H342-bH = target: T17, 4H342-bH
T17 chain: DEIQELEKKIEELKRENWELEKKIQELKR

4H2937-bH = target: T18, 4H2937-bH
T18 chain: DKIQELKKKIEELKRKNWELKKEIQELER

4H48-bH = target: T19, 4H48-bH
T19 chain: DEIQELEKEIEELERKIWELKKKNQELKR

4H2944-bH = target: T20, 4H2944-bH
T20 chain: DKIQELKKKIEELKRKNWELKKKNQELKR

4H491-bH = target: T21, 4H491-bH
T21 chain: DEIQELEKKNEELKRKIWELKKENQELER

4H2883-bH = target: T22, 4H2883-bH
T22 chain: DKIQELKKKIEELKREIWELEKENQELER

## DKIQQLKQKIQELKQEIQELEWENQELEQ [4H2883-bN]
4H48-bN
  interaction score: 2
4H2937-bN
  interaction score: -1.33
4H2944-bN
  interaction score: 0.237
4H491-bN
  interaction score: -0.669
4H2883-bN
  interaction score: 0.96
4H342-bN
  interaction score: -1.84

## DKNEQLKEKISELKEKIEQLKEENQSLEY [P12mSN]
P8mSN
  interaction score: -2.51
P9mSN
  interaction score: -2.15
P2mSN
  interaction score: -1.65
P6mSN
  interaction score: -1.04
P12mSN
  interaction score: -0.695
P1mSN
  interaction score: -1.32
P3mSN
  interaction score: -1.72
P5mSN
  interaction score: -1.2
P4mSN
  interaction score: -1.35
P7mSN
  interaction score: -0.807

## DKIQELKKKIEELKREIWELEKENQELER [4H2883-bH]
4H342-bH
  interaction score: -0.175
4H2937-bH
  interaction score: 0.674
4H48-bH
  interaction score: 1.17
4H2944-bH
  interaction score: 0.783
4H491-bH
  interaction score: 0.298
4H2883-bH
  interaction score: 1.73
